Patent publication US20230218738A1 (Pfizer, published 2023)

T1: RSV F protein mutant pXCS856 (RSV A2, UniProt P03420 26-109)
T1 chain 1: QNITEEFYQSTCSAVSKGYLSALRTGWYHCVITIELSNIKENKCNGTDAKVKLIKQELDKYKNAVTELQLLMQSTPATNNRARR
T1 chain 2: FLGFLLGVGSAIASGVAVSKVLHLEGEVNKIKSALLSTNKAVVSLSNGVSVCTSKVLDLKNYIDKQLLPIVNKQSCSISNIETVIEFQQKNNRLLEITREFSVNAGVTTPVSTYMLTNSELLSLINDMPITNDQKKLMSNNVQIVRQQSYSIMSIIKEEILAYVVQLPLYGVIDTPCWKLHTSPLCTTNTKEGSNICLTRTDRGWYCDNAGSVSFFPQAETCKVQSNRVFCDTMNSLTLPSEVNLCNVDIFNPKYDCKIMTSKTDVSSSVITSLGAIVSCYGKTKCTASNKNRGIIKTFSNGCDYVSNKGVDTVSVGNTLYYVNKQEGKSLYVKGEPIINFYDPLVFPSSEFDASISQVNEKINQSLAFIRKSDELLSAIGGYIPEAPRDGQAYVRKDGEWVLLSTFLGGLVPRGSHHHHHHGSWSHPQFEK

T2: RSV F protein mutant pXCS888 (RSV A2, UniProt P03420 26-109)
T2 chain 1: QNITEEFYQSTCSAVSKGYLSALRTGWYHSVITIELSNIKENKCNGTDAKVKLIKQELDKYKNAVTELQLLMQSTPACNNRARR
T2 chain 2: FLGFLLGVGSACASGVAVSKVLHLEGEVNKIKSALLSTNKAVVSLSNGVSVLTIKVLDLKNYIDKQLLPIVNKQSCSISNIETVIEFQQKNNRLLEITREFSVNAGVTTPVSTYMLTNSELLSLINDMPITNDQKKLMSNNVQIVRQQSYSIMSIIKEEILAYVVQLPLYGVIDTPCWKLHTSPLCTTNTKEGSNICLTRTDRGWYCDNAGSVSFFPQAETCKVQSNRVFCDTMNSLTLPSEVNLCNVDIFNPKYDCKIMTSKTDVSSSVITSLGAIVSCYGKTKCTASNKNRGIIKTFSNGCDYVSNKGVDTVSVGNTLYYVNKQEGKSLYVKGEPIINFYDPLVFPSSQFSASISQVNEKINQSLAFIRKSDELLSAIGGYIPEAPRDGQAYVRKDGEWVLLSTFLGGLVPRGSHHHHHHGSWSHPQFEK

T3: RSV F protein mutant pXCS882 (RSV A2, UniProt P03420 26-109)
T3 chain 1: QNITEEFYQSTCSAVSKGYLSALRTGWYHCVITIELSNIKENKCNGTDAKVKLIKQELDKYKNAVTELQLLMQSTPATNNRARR
T3 chain 2: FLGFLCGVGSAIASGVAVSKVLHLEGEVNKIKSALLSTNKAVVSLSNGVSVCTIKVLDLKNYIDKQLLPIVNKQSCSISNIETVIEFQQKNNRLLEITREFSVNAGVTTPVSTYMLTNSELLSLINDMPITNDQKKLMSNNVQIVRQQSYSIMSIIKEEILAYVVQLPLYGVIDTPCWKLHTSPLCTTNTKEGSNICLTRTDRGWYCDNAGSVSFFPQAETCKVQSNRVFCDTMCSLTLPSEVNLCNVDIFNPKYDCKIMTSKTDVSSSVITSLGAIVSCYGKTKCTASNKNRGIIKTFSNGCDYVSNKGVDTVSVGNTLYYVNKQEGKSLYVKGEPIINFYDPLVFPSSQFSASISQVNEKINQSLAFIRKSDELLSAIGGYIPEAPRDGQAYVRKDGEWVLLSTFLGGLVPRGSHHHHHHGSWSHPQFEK

T4: RSV F protein mutant pXCS858 (RSV A2, UniProt P03420 26-109)
T4 chain 1: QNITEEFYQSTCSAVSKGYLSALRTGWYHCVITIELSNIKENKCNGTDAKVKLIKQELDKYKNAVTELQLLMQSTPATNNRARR
T4 chain 2: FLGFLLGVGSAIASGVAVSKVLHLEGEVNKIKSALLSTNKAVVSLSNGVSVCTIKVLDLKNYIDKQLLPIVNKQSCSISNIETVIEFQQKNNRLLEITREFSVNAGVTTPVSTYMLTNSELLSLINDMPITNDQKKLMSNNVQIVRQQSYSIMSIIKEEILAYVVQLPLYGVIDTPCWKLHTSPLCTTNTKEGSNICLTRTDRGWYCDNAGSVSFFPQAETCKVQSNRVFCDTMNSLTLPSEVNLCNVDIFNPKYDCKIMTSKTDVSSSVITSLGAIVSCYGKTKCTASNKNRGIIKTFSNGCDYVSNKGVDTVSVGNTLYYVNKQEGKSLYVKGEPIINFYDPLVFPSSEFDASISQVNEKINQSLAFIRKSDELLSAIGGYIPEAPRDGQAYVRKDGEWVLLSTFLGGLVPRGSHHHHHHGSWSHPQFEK


Columns and labels:
Assay in all cases: BLI (Octet), F on anti-HIS tip, 20 nM mAb
[1] = target: T1, RSV F protein mutant pXCS856
[2] = target: RSV F protein mutant pXCS883 (RSV A2, UniProt P03420 26-109)
[3] = target: RSV F protein mutant pXCS780 (RSV A2, UniProt P03420 26-109)
[4] = target: RSV F protein mutant pXCS850 (RSV A2, UniProt P03420 26-109)
[5] = target: RSV F protein mutant pXCS854 (RSV A2, UniProt P03420 26-109)
[6] = target: RSV F protein mutant pXCS758 (RSV A2, UniProt P03420 26-109)
[7] = target: T2, RSV F protein mutant pXCS888
[8] = target: T3, RSV F protein mutant pXCS882
[9] = target: RSV F protein mutant pXCS779 (RSV A2, UniProt P03420 26-109)
[10] = target: RSV F protein mutant pXCS848 (RSV A2, UniProt P03420 26-109)
[11] = target: T4, RSV F protein mutant pXCS858
[12] = target: RSV F protein mutant pXCS740 (RSV A2, UniProt P03420 26-109)

Row | Binder | Response (nm shift) [1] [nm] | Response (nm shift) [2] [nm] | Response (nm shift) [3] [nm] | Response (nm shift) [4] [nm] | Response (nm shift) [5] [nm] | Response (nm shift) [6] [nm] | Response (nm shift) [7] [nm] | Response (nm shift) [8] [nm] | Response (nm shift) [9] [nm] | Response (nm shift) [10] [nm] | Response (nm shift) [11] [nm] | Response (nm shift) [12] [nm]
1 | MPE8 (antibody, V domains shown, also called MPEG) VH: EVQLVESGGGLVKPGGSLRLSCAASGFTFSSYSMNWVRQAPGKGLEWVSSISASSSYSDYADSAKGRFTISRDNAKTSLFLQMNSLRAEDTAIYFCARARATGYSSITPYFDIWGQGTLVTVSS VL: QSVVTQTPSVSGAPGQRVTISCTGSSSNIGAGYDVHWYQQLPGTAPKLLIYDNNNRPSGVPDRFSASKSGTSASLAITGLQAEDEADYYCQSYDRNLSGVFGTGTKVTVL | 1.06 | 0.704 | 0.608 | 1.04 | 0.886 | 0.816 | 0.878 | 0.691 | 0.232 | 0.266 | 1.06 | 0.546
2 | AM22 (antibody, V domains shown) VH: QVQLVQSGAEVKKPGATVKVSCKISGHTLIKLSIHWVRQAPGKGLEWMGGYEGEVDEIFYAQKFQHRLTVIADTATDTVYMELGRLTSDDTAVYFCGTLGVTVTEAGLGIDDYWGQGTLVTVSS VL: EIVLTQSPGTLSLSPGERATLSCRASQIVSRNHLAWYQQKPGQAPRLLIFGASSRATGIPVRFSGSGSGTDFTLTINGLAPEDFAVYYCLSSDSSIFTFGPGTKVDFK | 0.568 | 0.233 | 0.29 | 0.517 | 0.453 | 0.273 | 0.434 | 0.219 | 0.125 | 0.109 | 0.547 | 0.172
